Laboratory results as given in article PMC6821725, “Unique structure and function of viral rhodopsins” (Nature Communications, 2019).

Columns and labels:
[1] = target: T1, Organic Lake Phycodnavirus rhodopsin II (OLPVRII) (Organic Lake phycodnavirus, UniProt Z9UQ29F7D0); assay: X-ray crystal structure […] A, in meso; UV-Vis absorption; type: binding; conditions: covalent; Schiff base to Lys195; crystals from 0.2 M sodium malonate pH 4.6; spectra in DDM
T1 construct: expressed in E. coli SE1 or C41(DE3); monomeric and pentameric fractions in DDM

Asp85 = Asp85 (UniProt position 98, WARYADWLFTT); conditions: cited from earlier work
[2] = target: OLPVRII triple mutant E26A/R36A/W203A (Organic Lake Phycodnavirus); assay: SEC
[3] = target: Organic Lake Phycodnavirus rhodopsin II (Organic Lake Phycodnavirus); assay: SEC
[4] = target: Organic Lake Phycodnavirus rhodopsin II (Organic Lake Phycodnavirus); assay: cross-linking; glutaraldehyde (10%), DDM-solubilized multimeric SEC fraction, 2 mg/ml protein, 8 h, 4 °C, read by SDS-PAGE
[5] = target: Organic Lake Phycodnavirus rhodopsin II (Organic Lake Phycodnavirus); assay: cross-linking; glutaraldehyde (10%), monomeric fraction reconstituted into POPC/POPG (4:1 by weight; POPC:POPS in another paragraph) liposomes, 1 mg/ml protein, 8 h, read by SDS-PAGE
[6] = target: Organic Lake Phycodnavirus rhodopsin II (Organic Lake Phycodnavirus); assay: crystal structure; in meso crystallization in monoolein from the monomeric fraction, 0.2 M sodium malonate pH 4.6, 15% PEG 550 MME, 22 °C; space group P2_(1), five molecules in the asymmetric unit

CC1=C(/C=C/C(C)=C/C=C/C(C)=C/C=O)C(C)(C)CCC1 [all-trans-retinal]
X-ray crystal structure 1.9 A, in meso; UV-Vis absorption [1]: The retinal cofactor is covalently bound to Lys195 through the Schiff base (RSB)

Bacteriorhodopsin (bR) (Halobacterium salinarum)
pKa (Asp85): 2.7

OLPVRII triple mutant E26A/R36A/W203A (natural protein)
pentamer:monomer ratio in the elution profile (pentamer:monomer) [2]: 1
stoichiometry N [2]: 5

Organic Lake Phycodnavirus rhodopsin II (natural protein)
pentamer:monomer ratio in the elution profile (pentamer:monomer) [3]: 4
stoichiometry N [3]: 5
stoichiometry N [4]: 5
stoichiometry N [5]: 5
stoichiometry N [6]: 5
